# How the values were obtained:
# [1] = target: purified plasma factor IX (Stago) (UniProt P00740)
# [2] = tested on: recombinant factor X wild type (rFX)
# [3] = target: corresponding murine coagulation proteins; test: cell-based or functional assay
# [4] = target: corresponding murine coagulation proteins
# UniProt P00740, sequence (P00740 whole entry, looked up): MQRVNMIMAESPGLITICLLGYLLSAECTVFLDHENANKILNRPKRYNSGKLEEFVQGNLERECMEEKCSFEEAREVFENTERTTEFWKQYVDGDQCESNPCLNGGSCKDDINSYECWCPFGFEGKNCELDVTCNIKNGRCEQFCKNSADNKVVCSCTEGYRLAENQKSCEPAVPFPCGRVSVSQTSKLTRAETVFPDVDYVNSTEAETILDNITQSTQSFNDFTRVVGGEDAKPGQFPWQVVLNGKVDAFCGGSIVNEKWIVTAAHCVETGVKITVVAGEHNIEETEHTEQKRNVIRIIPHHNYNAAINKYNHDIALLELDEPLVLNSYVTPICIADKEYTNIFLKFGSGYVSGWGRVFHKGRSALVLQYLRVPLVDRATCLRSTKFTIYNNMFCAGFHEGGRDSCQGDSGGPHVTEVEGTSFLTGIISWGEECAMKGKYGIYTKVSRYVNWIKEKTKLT
molecule,measurement,setting,value
purified factor XIa,"cleavage / conversion into activated forms, Western blot",[1],The conversion of FIX into the activated forms (FIXa and FIXb)
same,"cleavage / in vitro activation, Western blot",rFX/FXIa (Q-R/I) analog,"after an incubation time of 1 h at 37 °C in the presence of CaCl2, the reaction batch of FXIa, with rFX/FXIa (Q-R/I) as a substrate, shows protein bands of approximately 36 kD and 32 kD which resemble the activated alpha and beta forms (aHCa and bHCa) of the heavy chain of FX"
same,"cleavage, Western blot (negative control)",[2],"compared to rFX in the absence of FXIa, no change for rFX is visible in the protein pattern after incubation with FXIa"
"rFX/FXIa (Q-R/I) analog, P00742 41-179; P00742 183-488 (enzyme) light: ANSFLEEMKKGHLERECMEETCSYEEAREVFEDSDKTNEFWNKYKDGDQCETSPCQNQGKCKDGLGEYTCTCLEGFEGKNCELFTRKLCSLDNGDCDQFCHEEQNSVVCSCARGYTLADNGKACIPTGPYPCGKQTLER heavy: SVAQATSSSGEAPDSITWKPYDAADLDPTENPFDLLDFNQTQPEQSFNDFTRIVGGQECKDGECPWQALLINEENEGFCGGTILSEFYILTAAHCLYQAKRFKVRVGDRNTEQEEGGEAVHEVEVVIKHNRFTKETYDFDIAVLRLKTPITFRMNVAPACLPERDWAESTLMTQKTGIVSGFGRTHEKGRQSTRLKMLEVPYVDRNSCKLSSSFIITQNMFCAGYDTKQEDACQGDSGGPHVTRFKDTYFVTGIVSWGESCARKGKYGIYTKVTAFLKWIDRSMKTRGLPKAKSHAPEVITSSPLK","Coagulation Time in sec. (aPTT, FIX-def. mouse plasma + rfX/fXIa(Q-R/I))",[3],48.6 s
same,"Coagulation Time in sec. (aPTT, FVIII-def. mouse plasma + rfX/fXIa(Q-R/I))",[3],52.5 s
rFX/FXIa (Q-R/I) analog (protein) chain 1: ANSFLEEMKKGHLERECMEETCSYEEAREVFEDSDKTNEFWNKYKDGDQCETSPCQNQGKCKDGLGEYTCTCLEGFEGKNCELFTRKLCSLDNGDCDQFCHEEQNSVVCSCARGYTLADNGKACIPTGPYPCGKQTLER chain 2: SVAQATSSSGEAPDSITWKPYDAADLDPTENPFDLLDFNQTQPEQSFNDFTRIVGGQECKDGECPWQALLINEENEGFCGGTILSEFYILTAAHCLYQAKRFKVRVGDRNTEQEEGGEAVHEVEVVIKHNRFTKETYDFDIAVLRLKTPITFRMNVAPACLPERDWAESTLMTQKTGIVSGFGRTHEKGRQSTRLKMLEVPYVDRNSCKLSSSFIITQNMFCAGYDTKQEDACQGDSGGPHVTRFKDTYFVTGIVSWGESCARKGKYGIYTKVTAFLKWIDRSMKTRGLPKAKSHAPEVITSSPLK,"% Activity in mouse plasma (aPTT, FIX-def. plasma + rfX/fXIa(Q-R/I))",[4],166%
same,"% Activity in mouse plasma (aPTT, FVIII-def. plasma + rfX/fXIa(Q-R/I))",[4],97%

# — patent US6958322
